B1: Probable ATP-dependent transporter SufC (Escherichia coli (strain K12)), P77499 (parent)
chain: MLSIKDLHVSVEDKAILRGLSLDVHPGEVHAIMGPNGSGKSTLSATLAGREDYEVTGGTVEFKGKDLLALSPEDRAGEGIFMAFQYPVEIPGVSNQFFLQTALNAVRSYRGQETLDRFDFQDLMEEKIALLKMPEDLLTRSVNVGFSGGEKKRNDILQMAVLEPELCILDESDSGLDIDALKVVADGVNSLRDGKRSFIIVTHYQRILDYIKPDYVHVLYQGRIVKSGDFTLVKQLEEQGYGWLTEQQ
partner: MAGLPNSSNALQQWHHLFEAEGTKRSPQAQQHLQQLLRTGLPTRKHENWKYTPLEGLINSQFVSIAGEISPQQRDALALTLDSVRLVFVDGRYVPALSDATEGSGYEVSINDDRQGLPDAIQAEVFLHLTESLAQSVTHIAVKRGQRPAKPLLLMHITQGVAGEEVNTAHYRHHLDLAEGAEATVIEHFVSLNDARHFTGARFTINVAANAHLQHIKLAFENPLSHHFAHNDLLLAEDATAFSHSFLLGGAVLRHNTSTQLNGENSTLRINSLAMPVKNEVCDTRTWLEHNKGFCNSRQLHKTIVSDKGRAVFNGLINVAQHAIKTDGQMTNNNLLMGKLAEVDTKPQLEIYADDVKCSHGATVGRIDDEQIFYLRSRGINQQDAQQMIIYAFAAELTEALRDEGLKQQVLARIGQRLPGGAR

Variants of: B1
Settings: with sufd_ecoli sufD

**Q.** For Y86C, which “effect of a mutation on the interaction” value is on record?
**A.** Its value is “increasing interaction”.
